In PMC12227652 (Nature Communications, 2025):
Like-named read-outs stand apart in the source and are kept apart here. Blank lines part the entries; values can stand above or below the binder they belong to.

B5: MIRO1_(1-591), full-length cytosolic human MIRO1 (domain or fragment, UniProt Q8IXI2 1-591, looked up)
chain: MKKDVRILLVGEPRVGKTSLIMSLVSEEFPEEVPPRAEEITIPADVTPERVPTHIVDYSEAEQSDEQLHQEISQANVICIVYAVNNKHSIDKVTSRWIPLINERTDKDSRLPLILVGNKSDLVEYSSMETILPIMNQYTEIETCVECSAKNLKNISELFYYAQKAVLHPTGPLYCPEEKEMKPACIKALTRIFKISDQDNDGTLNDAELNFFQRICFNTPLAPQALEDVKNVVRKHISDGVADSGLTLKGFLFLHTLFIQRGRHETTWTVLRRFGYDDDLDLTPEYLFPLLKIPPDCTTELNHHAYLFLQSTFDKHDLDRDCALSPDELKDLFKVFPYIPWGPDVNNTVCTNERGWITYQGFLSQWTLTTYLDVQRCLEYLGYLGYSILTEQESQASAVTVTRDKKIDLQKKQTQRNVFRCNVIGVKNCGKSGVLQALLGRNLMRQKKIREDHKSYYAINTVYVYGQEKYLLLHDISESEFLTEAEIICDVVCLVYDVSNPKSFEYCARIFKQHFMDSRIPCLIVAAKSDLHEVKQEYSISPTDFCRKHKMPPPQAFTCNTADAPSKDIFVKLTTMAMYPHVTQADLKSST

Legend:
cryo-EM structure = target: the molecule itself; assay: cryo-EM structure
[1] = target: B5; assay: pull-down
[2] = target: B5; assay: pull-down; remark: listed apart in the source
MIRO1_(177-591) = MIRO1_(177-591) (human, UniProt Q8IXI2 177-591); assay: ITC
mass photometry = target: the molecule itself; assay: mass photometry

B1: TRAK1_(569-623) (domain or fragment, human, UniProt Q9UPV9 569-623, looked up)
chain: YLPEKLQIVKPLEGSATLHHWQQLAQPHLGGILDPRPGVVTKGFRTLDVDLDEVY
binding result (cryo-EM structure): binds

B2: MBP-TRAK1_(416-446,561-623) (domain or fragment, human, UniProt Q9UPV9 416-446, looked up)
chain: RSLTPSPMNIPGSNQSSAMNSLLSSCVSTPRGMSFSSRSYLPEKLQIVKPLEGSATLHHWQQLAQPHLGGILDPRPGVVTKGFRTLDVDLDEVY
binding result [1]: binds

Binder: RSLTPSPMNIPGSNQS (peptide, UniProt Q9UPV9 416-431, looked up) [MBP-TRAK1_(416-431)]
Kd (MIRO1_(177-591)): 10.9 to 15.9 µM
stoichiometry N (MIRO1_(177-591)): 1

Binder: B5
stoichiometry N (mass photometry): 2

Second part, the binder after the results:

binding result [2]: binds
B3: MBP-TRAK1_(416-446,561-623) W589D (domain or fragment, human, UniProt Q9UPV9 416-446, looked up)
chain: RSLTPSPMNIPGSNQSSAMNSLLSSCVSTPRGMSFSSRSYLPEKLQIVKPLEGSATLHHDQQLAQPHLGGILDPRPGVVTKGFRTLDVDLDEVY

binding result [2]: binds
B4: MBP-TRAK1_(416-446,561-623) L597D (domain or fragment, human, UniProt Q9UPV9 416-446, looked up)
chain: RSLTPSPMNIPGSNQSSAMNSLLSSCVSTPRGMSFSSRSYLPEKLQIVKPLEGSATLHHWQQLAQPHDGGILDPRPGVVTKGFRTLDVDLDEVY
